Test results: the RNAGym collection of RNA variant scans (doi:10.1073/pnas.2313332121)
Fewer inactive variants are shown than the library holds.

B1: TPR 5TU (parent)
chain: GGAUCUUCUCGAUCUAACAAAAAAGACAAAUCUGCCACAAAGCUUGAGAGCAUCUUCGGAUGCAGAGGCGGCAGCCUUCGGUGGCGCGAUAGCGCCAACGUUCUCAACUAUGACACGCAAAACGCGUGCUCCGUUGAAUGGAGUUUAUCAUG

Variants of: B1
Assay: polymerase ribozyme fitness, log enrichment relative to wild type (log ratio); higher = more active; in vitro selection for triplet polymerase activity
How it was run: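 Input and output libraries were sequenced on Illumina after a single in vitro selection round, run in triplicate on PCR-built, transcribed mutant libraries of each subunit of a heterodimeric triplet polymerase ribozyme. Selection annealed libraries to a biotinylated primer, the partner subunit and triplets, incubated them frozen at −7 °C, then gel-excised extended constructs for streptavidin-bead capture and RT-PCR. Genotypes with ≥10 input reads and ≥1 read per output were kept. Fitness is the logarithm, taken in base 2, of genotype enrichment divided by wild-type enrichment, using inverse-variance-weighted replicate averages.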

Variant	polymerase ribozyme fitness (log ratio)
C125U U134G A142C	-3.76
C116U C125U U146C	-0.74
A138C U139A	-3.78
G124C A142U	-0.985
A107G U127C A138C	≤ -4.2
C114U G140C A150C	≤ -4.2
A106G U134A	-1.28
C118G A122C G141C	-2.43
C125U G141C	-3.85
A110U U127A	-4.06
A138U G141C	-3.88
A119U C129U	0.265
C114A U144G	-3.71
C108G A122C	≤ -4.2
G126A C132G	-2.68
G124A A137G	-1.05
U109A G141A A142U	≤ -4.2
A120C G136U G140C	-4.19
C123G	-0.337
C123A	-0.404
C123U	0.225

Variant	polymerase ribozyme fitness (log ratio)
C118G C129U	-1.77
A106U	-0.23
A106G	0.398
A106C	-0.467
C108U A115G	-3.94
C125A A147U	-0.189
G124A C125G	0.356
A107U U145A	-2.78
A121U U145C	1.15
U109G C118G U144A	-3.88
A121U C125U	-0.154
A138C	-3.67
A138G	-1.9
A138U	-3.87
A106G C125A	-0.665
A121G U134G	-2.56
A121U C125U G143C U146C	-3.38
A106G C116U U148C	-1.25
A106G G117A	0.816
C116U A142U	-0.344
A115G U135A	-2.48

Variant	polymerase ribozyme fitness (log ratio)
G128C A150U	-4
C105U A119U G140A U146G	-3.72
U139C U144A	-3.36
C116G G140C	-3.81
A121C C125U G143U	-2.41
U134C A142C	-0.0581
A113C U134C A137C G140A U148G	≤ -4.2
A119U A137U	-4.12
C105G U127C U139G	-2.77
A137C A138G	-3.68
C123U G124A U144C	0.0575
U127G A138G A142C	-3.48
U111C G117U	-4.09
A107G C131A	-4.19
U109G G140U	-3.76
C114U C131U	-1.64
C131U U144G	-0.864
A113G A138U	-3.79
A121U C132U U146A	-0.968
C105G C118A	-3.26
C118A U144A	0.0258

Variant	polymerase ribozyme fitness (log ratio)
A115U G141C	-3.37
A115U A119G A138G	≤ -4.2
C131G A137U	-4.16
C116U A119U U135C	-2.59
C116G U146G	-0.306
C114G G133A	≤ -4.2
U111G	-4.05
U111C	-1.77
U111A	-3.05
U134A G141U	-2.41
C105A A113U	≤ -4.2
C118G A122C	-1.49
G124C U135A	-1.84
A107C C118U	≤ -4.2
U109G A142C	-2.18
C118G A150G	-2.14
A107G G141U	-3.07
U139G A150C	-3.84
A138U U151C	-4.01
C108A G143U U144G	≤ -4.2
